In the supplement of paper PMC10724198 one finds protein stability index data, which are given here for 16 sequences.

± gives the standard deviation of the averaged measurements.

Data set [1] has as its system Saccharomyces cerevisiae. Put plainly: protein stability index of tFT-peptide fusion (C-terminal peptide) (PSI (0-1 scale)); higher = more stable (slower turnover). On the procedure: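 MPS profiling in S. cerevisiae of the tFT-X12 degron library: putative degron peptides plus stable controls, 12 aa, fused to the C-terminus of a sfGFP-mCherry timer. Cells are FACS-sorted into 8 mCherry/sfGFP bins and deep-sequenced. PSI runs from 0 (unstable) to 1 (stable). Backgrounds are wild type, das1Δ and doa10Δ at 30 °C, and wild type, das1Δ, cdc34-1 and cdc53-1 at 37 °C; 2-3 technical replicates each.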

In data set [2] the test system is Saccharomyces cerevisiae. Described as above. The note with it: genetic background: wild type; temperature: 30 C.
Where [3] appears, read: genetic background: cdc34-1, temperature: 37 C.
Setting [4] is: genetic background: cdc53-1, temperature: 37 C.
Where [5] appears, read: genetic background: das1 deletion, temperature: 30 C.
Setting [6] is: genetic background: das1 deletion, temperature: 37 C.
[7] abbreviates: genetic background: doa10 deletion, temperature: 30 C.
Setting [8] is: genetic background: wild type, temperature: 30 C.
Where [9] appears, read: genetic background: wild type, temperature: 37 C.
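Note: PSI is a weighted mean of sequencing reads over stability bins, variants kept only with over 10 reads, mCherry proximal and sfGFP distal, peptide attached via GGGS linker.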

On to WCAMITVFCGSG, for which the protein stability index in the data set on Saccharomyces cerevisiae [1] (setting [3]) stood at 0.268 ± 0.035; with Saccharomyces cerevisiae [1] (setting [4]), 0.29 ± 0.041; in the data set with Saccharomyces cerevisiae [1] (setting [5]), 0.214 ± 0.037; in the data set on Saccharomyces cerevisiae [1] (setting [6]), 0.4101 ± 0.0027; in the data set on Saccharomyces cerevisiae [1] (setting [7]) it was 0.179 ± 0.015; with Saccharomyces cerevisiae [1] (setting [8]) it was 0.208 ± 0.033. Besides, the protein stability index in the data set on Saccharomyces cerevisiae [1] (setting [9]) was determined as 0.3796 ± 0.0026; in the data set on Saccharomyces cerevisiae [2], 0.34 ± 0.016.

WCAVRVWFGAAL: the protein stability index was 0.648 ± 0.052 in the data set with Saccharomyces cerevisiae [1] (setting [3]); 0.676 ± 0.028 in the data set on Saccharomyces cerevisiae [1] (setting [4]); 0.5731 ± 0.0039 in the data set with Saccharomyces cerevisiae [1] (setting [5]); 0.693 ± 0.017 in the data set with Saccharomyces cerevisiae [1] (setting [6]); 0.3927 ± 0.0016 in the data set on Saccharomyces cerevisiae [1] (setting [7]); 0.424 ± 0.01 in the data set with Saccharomyces cerevisiae [1] (setting [8]). The results for the protein stability index in the data set with Saccharomyces cerevisiae [1] (setting [9]) and in the data set on Saccharomyces cerevisiae [2] were 0.56132 ± 0.00042 and 0.505 ± 0.014, respectively.

For the sequence WCCVFVARFFWL, the protein stability index in the data set with Saccharomyces cerevisiae [1] (setting [3]) is 0.416 ± 0.013; in the data set on Saccharomyces cerevisiae [1] (setting [4]) it was 0.504 ± 0.013; in the data set with Saccharomyces cerevisiae [1] (setting [5]), 0.348 ± 0.031; in the data set with Saccharomyces cerevisiae [1] (setting [6]), 0.499 ± 0.014; with Saccharomyces cerevisiae [1] (setting [7]) it was 0.334 ± 0.0061; with Saccharomyces cerevisiae [1] (setting [8]) it was 0.342 ± 0.011. Moreover, the protein stability index in the data set on Saccharomyces cerevisiae [1] (setting [9]) stood at 0.44 ± 0.008; in the data set on Saccharomyces cerevisiae [2], 0.413 ± 0.04.

For the sequence WEISNFFGCFIG, the protein stability index in the data set on Saccharomyces cerevisiae [1] (setting [3]) was determined as 0.671 ± 0.031; in the data set with Saccharomyces cerevisiae [1] (setting [4]) it was 0.758 ± 0.026; with Saccharomyces cerevisiae [1] (setting [5]), 0.683 ± 0.044; with Saccharomyces cerevisiae [1] (setting [6]), 0.772 ± 0.017; with Saccharomyces cerevisiae [1] (setting [7]) it was 0.325 ± 0.0037; in the data set on Saccharomyces cerevisiae [1] (setting [8]) it was 0.365 ± 0.01. In addition, the protein stability index with Saccharomyces cerevisiae [1] (setting [9]) came to 0.552 ± 0.071; in the data set with Saccharomyces cerevisiae [2], 0.428 ± 0.028.

Regarding WFFTDIVMLVRV, the protein stability index with Saccharomyces cerevisiae [1] (setting [3]) is 0.126 ± 0.014; in the data set on Saccharomyces cerevisiae [1] (setting [4]) it was 0.12 ± 0.044; in the data set on Saccharomyces cerevisiae [1] (setting [5]), 0.192 ± 0.026; with Saccharomyces cerevisiae [1] (setting [6]) it was 0.277 ± 0.0094; in the data set on Saccharomyces cerevisiae [1] (setting [7]), 0.237 ± 0.0069; in the data set on Saccharomyces cerevisiae [1] (setting [8]), 0.193 ± 0.023. Besides, the protein stability index with Saccharomyces cerevisiae [1] (setting [9]) worked out at 0.233 ± 0.018; with Saccharomyces cerevisiae [2] it was 0.273 ± 0.0098.

For the sequence WFSVFTMSILSR, the protein stability index in the data set on Saccharomyces cerevisiae [1] (setting [3]) amounted to 0.416 ± 0.026; in the data set with Saccharomyces cerevisiae [1] (setting [4]), 0.479 ± 0.0075; in the data set on Saccharomyces cerevisiae [1] (setting [5]) it was 0.338 ± 0.028; in the data set on Saccharomyces cerevisiae [1] (setting [6]), 0.4963 ± 0.0024; in the data set on Saccharomyces cerevisiae [1] (setting [7]) it was 0.334 ± 0.004; in the data set on Saccharomyces cerevisiae [1] (setting [8]), 0.341 ± 0.018. The protein stability index in the data set with Saccharomyces cerevisiae [1] (setting [9]) worked out at 0.474 ± 0.01; with Saccharomyces cerevisiae [2] it was 0.435 ± 0.0096.

In the case of WFWVAVGVVGGG, the protein stability index in the data set on Saccharomyces cerevisiae [1] (setting [3]) was determined as 0.496 ± 0.029; with Saccharomyces cerevisiae [1] (setting [4]) it was 0.534 ± 0.022; in the data set on Saccharomyces cerevisiae [1] (setting [5]) it was 0.356 ± 0.032; in the data set on Saccharomyces cerevisiae [1] (setting [6]) it was 0.5243 ± 0.0031; with Saccharomyces cerevisiae [1] (setting [7]), 0.326 ± 0.016; in the data set with Saccharomyces cerevisiae [1] (setting [8]), 0.358 ± 0.015. The values for the protein stability index in the data set on Saccharomyces cerevisiae [1] (setting [9]) and with Saccharomyces cerevisiae [2] were 0.5 ± 0.0082 and 0.449 ± 0.014, respectively.

Consider WGCIFWFFDVRV, for which the protein stability index in the data set with Saccharomyces cerevisiae [1] (setting [3]) was determined as 0.193 ± 0.0065; with Saccharomyces cerevisiae [1] (setting [4]), 0.335 ± 0.015; in the data set on Saccharomyces cerevisiae [1] (setting [5]) it was 0.229 ± 0.023; in the data set on Saccharomyces cerevisiae [1] (setting [6]) it was 0.416 ± 0.018; in the data set on Saccharomyces cerevisiae [1] (setting [7]) it was 0.203 ± 0.0046; in the data set on Saccharomyces cerevisiae [1] (setting [8]), 0.207 ± 0.025. For the same sequence, the protein stability index is 0.402 ± 0.026 in the data set with Saccharomyces cerevisiae [1] (setting [9]) and 0.386 ± 0.027 in the data set on Saccharomyces cerevisiae [2].

For the sequence WGGEFLSLTLSS, the protein stability index is 0.732 ± 0.028 in the data set with Saccharomyces cerevisiae [1] (setting [3]); 0.761 ± 0.018 with Saccharomyces cerevisiae [1] (setting [4]); 0.664 ± 0.02 in the data set on Saccharomyces cerevisiae [1] (setting [5]); 0.7821 ± 0.0073 with Saccharomyces cerevisiae [1] (setting [6]); 0.679 ± 0.025 with Saccharomyces cerevisiae [1] (setting [7]); 0.683 ± 0.021 in the data set with Saccharomyces cerevisiae [1] (setting [8]). Also, the protein stability index in the data set on Saccharomyces cerevisiae [1] (setting [9]) came out at 0.743 ± 0.025; in the data set on Saccharomyces cerevisiae [2] it was 0.684 ± 0.027.

With WGIPRRPTLFIP, the protein stability index with Saccharomyces cerevisiae [1] (setting [3]) came out at 0.65 ± 0.0098; in the data set with Saccharomyces cerevisiae [1] (setting [4]) it was 0.749 ± 0.03; with Saccharomyces cerevisiae [1] (setting [5]), 0.658 ± 0.011; with Saccharomyces cerevisiae [1] (setting [6]), 0.7417 ± 0.00092; in the data set on Saccharomyces cerevisiae [1] (setting [7]) it was 0.296 ± 0.023; with Saccharomyces cerevisiae [1] (setting [8]), 0.325 ± 0.035. Moreover, the results for the protein stability index in the data set with Saccharomyces cerevisiae [1] (setting [9]) and with Saccharomyces cerevisiae [2] were 0.5193 ± 0.0044 and 0.434 ± 0.015, respectively.

Take WHLLRFETQMFC: the protein stability index in the data set with Saccharomyces cerevisiae [1] (setting [3]) is 0.571 ± 0.018; in the data set with Saccharomyces cerevisiae [1] (setting [4]), 0.7091 ± 0.0027; with Saccharomyces cerevisiae [1] (setting [5]), 0.611 ± 0.037; in the data set with Saccharomyces cerevisiae [1] (setting [6]), 0.712 ± 0.022; in the data set on Saccharomyces cerevisiae [1] (setting [7]) it was 0.151 ± 0.028; in the data set with Saccharomyces cerevisiae [1] (setting [8]), 0.164 ± 0.016. For the same sequence, the protein stability index in the data set on Saccharomyces cerevisiae [1] (setting [9]) was 0.337 ± 0.0026; in the data set with Saccharomyces cerevisiae [2], 0.172 ± 0.049.

WHVSLRFAFYVF: the protein stability index with Saccharomyces cerevisiae [1] (setting [3]) was determined as 0.2459 ± 0.0022; in the data set with Saccharomyces cerevisiae [1] (setting [4]), 0.326 ± 0.02; in the data set with Saccharomyces cerevisiae [1] (setting [5]) it was 0.235 ± 0.019; in the data set with Saccharomyces cerevisiae [1] (setting [6]), 0.342 ± 0.011; in the data set with Saccharomyces cerevisiae [1] (setting [7]), 0.136 ± 0.0056; with Saccharomyces cerevisiae [1] (setting [8]) it was 0.158 ± 0.018. In addition, the protein stability index was 0.263 ± 0.0032 with Saccharomyces cerevisiae [1] (setting [9]) and 0.22 ± 0.12 in the data set with Saccharomyces cerevisiae [2].

Take WIVQCCLYVPVQ: the protein stability index in the data set with Saccharomyces cerevisiae [1] (setting [3]) amounted to 0.288 ± 0.011; with Saccharomyces cerevisiae [1] (setting [4]) it was 0.314 ± 0.017; with Saccharomyces cerevisiae [1] (setting [5]), 0.25 ± 0.025; in the data set on Saccharomyces cerevisiae [1] (setting [6]), 0.3619 ± 0.0011; with Saccharomyces cerevisiae [1] (setting [7]), 0.212 ± 0.0053; with Saccharomyces cerevisiae [1] (setting [8]), 0.237 ± 0.02. Besides, the protein stability index in the data set with Saccharomyces cerevisiae [1] (setting [9]) stood at 0.356 ± 0.024; with Saccharomyces cerevisiae [2], 0.377 ± 0.0076.

On to WIYKIVTYEKKS, for which the protein stability index in the data set on Saccharomyces cerevisiae [1] (setting [3]) was determined as 0.701 ± 0.05; in the data set with Saccharomyces cerevisiae [1] (setting [4]), 0.701 ± 0.03; in the data set on Saccharomyces cerevisiae [1] (setting [5]), 0.648 ± 0.041; in the data set with Saccharomyces cerevisiae [1] (setting [6]), 0.705 ± 0.029; with Saccharomyces cerevisiae [1] (setting [7]) it was 0.633 ± 0.038; in the data set with Saccharomyces cerevisiae [1] (setting [8]), 0.633 ± 0.036. Also, the protein stability index stood at 0.702 ± 0.0082 in the data set with Saccharomyces cerevisiae [1] (setting [9]) and 0.145 ± 0.049 in the data set with Saccharomyces cerevisiae [2].

With WLGLFAFRRCLV, the protein stability index in the data set on Saccharomyces cerevisiae [1] (setting [3]) was 0.544 ± 0.03; with Saccharomyces cerevisiae [1] (setting [4]), 0.583 ± 0.013; in the data set on Saccharomyces cerevisiae [1] (setting [5]), 0.463 ± 0.018; with Saccharomyces cerevisiae [1] (setting [6]), 0.5898 ± 0.0041; with Saccharomyces cerevisiae [1] (setting [7]) it was 0.194 ± 0.012; with Saccharomyces cerevisiae [1] (setting [8]), 0.223 ± 0.025. Besides, the protein stability index was determined as 0.3983 ± 0.0017 with Saccharomyces cerevisiae [1] (setting [9]) and 0.31 ± 0.018 in the data set on Saccharomyces cerevisiae [2].

Consider WLVIWPRKLSTV, for which the protein stability index in the data set with Saccharomyces cerevisiae [1] (setting [3]) stood at 0.588 ± 0.039; in the data set with Saccharomyces cerevisiae [1] (setting [4]), 0.632 ± 0.005; in the data set on Saccharomyces cerevisiae [1] (setting [5]), 0.477 ± 0.027; in the data set with Saccharomyces cerevisiae [1] (setting [6]), 0.6179 ± 0.0036; with Saccharomyces cerevisiae [1] (setting [7]), 0.359 ± 0.014; in the data set with Saccharomyces cerevisiae [1] (setting [8]), 0.397 ± 0.022. Further, the protein stability index in the data set with Saccharomyces cerevisiae [1] (setting [9]) is 0.573 ± 0.031; in the data set with Saccharomyces cerevisiae [2], 0.481 ± 0.0083.
